According to patent publication US20110008279A1, “Methods and Compositions Relating to Adhesins as Adjuvants” (priority 2005, published 2011):
“And” between values parts separate entries of the source, which are not always exact repeats. Identical values can stand only once. Like-named read-outs stand apart in the source and are kept apart here.

Columns and labels:
[1] = molecular target: low affinity binding sites for NadA on immature mo-DCs (human); assay: flow cytometry of Alexa-NadA on mo-DCs, Scatchard plot
[2] = molecular target: high affinity binding sites for NadA on immature mo-DCs (human); assay: as above
[3] = molecular target: specific NadA binding sites on monocytes (human); assay: NadA-I125 binding to monocytes, Scatchard plot; value counted on the homo-trimer
[4] = molecular target: low affinity binding sites for NadA on immature mo-DCs (human); assay: flow cytometry of Alexa-NadA on mo-DCs, Scatchard analysis
[5] = molecular target: high affinity binding sites for NadA on immature mo-DCs (human); assay: as above
[6] = molecular target: NadA-specific binding sites on macrophage (human); assay: flow cytometry (MFI), Alexa-NadA displaced by unlabelled NadA on macrophages, 37° C
[7] = molecular target: specific NadA binding sites on monocytes (human)
mo-DCs [8] = assay: Expression of maturation markers on mo-DCs (flow cytometry); assay type: cell-based, human; conditions: flagellin 10 μg/ml; for CD86 expression: LPS 0.1 μg/ml
Protocol: Reagents used were tested for low endotoxin contamination using the Limulus amoebocyte assay (Sigma). Dendritic cells were generated from human peripheral blood mononuclear cells (PBMC) as described previously. In brief, PBMC were isolated from buffy coats of healthy donors by Ficoll-Paque Plus density gradient centrifugation (Amersham Pharmacia Biotech AB). Separate monocyte and T-cell fractions were obtained from PBMCs by Percoll density gradient centrifugation (Amersham Pharmacia Biotech AB). […] DC were obtained by 6-d culture adherent monocytes in medium with 20 ng/ml IL-4 (5×10^6 units/mg, Peprotech) and 50 ng/ml GM-CSF (1×10^7 units/mg, Peprotech). Cytokines were added again on day 4 in RPMI-1640 medium supplemented with 10% FBS. […] After 24 h cells were harvested and analysed. Culture supernatants were collected frozen in liquid nitrogen and conserved at −80° C. for cytokine analysis.
After differentiation, DC were routinely stained with phycoerytrin conjugated monoclonal antibodies to human CD14, CD1a, CD83, CD86 (B7.2), CD80 (B7.1), MHC II (HLA-DR), purchased from BD-Pharminghen and Caltag. In parallel, cells were stained with the isotype matched control mAb. Cells were immunostained with the proper dilution of PE-conjugated anti human monoclonal antibodies at 4° C. for 30 min in 100 μl of phosphate-buffered saline pH 7.2 (PBS, GIBCO BRL) containing 1% FBS and 0.1% NaN3 (FACS buffer). After washing, propidium iodide was added to exclude dead cells and cell fluorescence intensities of the gated populations were measured with a EPICS XL-MCL (Coulter) flow cytometer and analyzed with EXPO 32ADC XL 3COLOR or WinMDI 2.8. software. Data were collected on 10000-20000 events.

mo-DCs [9] = assay: Cytokine and chemokine secretion by mo-DCs (Bio-Plex, ELISA); assay type: cell-based, human; conditions: after IFN-γ priming; flagellin 10 μg/ml, CpG 10 μg/ml, maximal LPS
Protocol: Reagents used were tested for low endotoxin contamination using the Limulus amoebocyte assay (Sigma). Dendritic cells were generated from human peripheral blood mononuclear cells (PBMC) as described previously. In brief, PBMC were isolated from buffy coats of healthy donors by Ficoll-Paque Plus density gradient centrifugation (Amersham Pharmacia Biotech AB). Separate monocyte and T-cell fractions were obtained from PBMCs by Percoll density gradient centrifugation (Amersham Pharmacia Biotech AB). Residual T and B cells were removed from monocyte fraction by plastic adherence of 3×10^6 cells per well in 6-well plates (Costar) resulting in CD14^+ monocyte populations of >95% purity (determined by flow cytometry). DC were obtained by 6-d culture adherent monocytes in medium with 20 ng/ml IL-4 (5×10^6 units/mg, Peprotech) and 50 ng/ml GM-CSF (1×10^7 units/mg, Peprotech). Cytokines were added again on day 4 in RPMI-1640 medium supplemented with 10% FBS. Following this procedure more than 90% cells belonged to the immature DC phenotype (CD1a^+, HLADRlow, CD14^−, CD83^−, CD86^low, CD80^low). On day 5 cells were treated with nothing or with recombinant human IFN-γ (1000 U/ml) for 18 h before stimulation with NadA (0.0375-5 μM) or LPS (1 μg/ml). After 24 h cells were harvested and analysed. Culture supernatants were collected frozen in liquid nitrogen and conserved at −80° C. for cytokine analysis.
The antibody pairs used, directed against different non-competing epitopes of a given cytokine, were purchased from BioRad. Calibration curves from recombinant cytokine standard were prepared with four-fold dilution steps in RPMI-1640 medium containing 10% FBS. Assays were carried out in 96-well sterile pre-wetted filter plates at room temperature and protected from light. A mixture containing 5000 microspheres per cytokine was incubated together with standard or sample in a final volume of 50 μl for 30 min, under continuous shaking (300 rpm). After three washes by vacuum filtration with Bio-Plex washing buffer a cocktail of biotinylated antibodies diluted in Bio-Plex detection antibody diluent was added (25 μl to each well). After a 30 minutes incubation and washing, Streptavidin-PE diluted in Bio-Plex Assay buffer was added (50 μl per well). At the end of 10 minutes incubation under continuous shaking and after washing the fluorescence intensity of the beads was measured in a final volume of 125 μl of Bio-Plex assay buffer. Data analysis was done with Bio-Plex Manager software using a five-parametric-curve fitting. The detection limits were […].
IL12(p40) was measured by capture enzyme-linked immunosorbent assay (ELISA) with antibody pairs and cytokine standard purchased from Bender MedSystems. The concentrations of IL12(p40) in the cell-free supernatants were determined with ELISA kits according to the manufacturer's instructions. The detection limit of the assays was […].

mo-DCs [10] = assay: as above; assay type: cell-based, human; conditions: even after IFN-γ priming; flagellin, LPS 100 μg/ml (so in the source)

Substance	Kd [1]	fraction of binding sites [1] [%]	Kd [2] [nM]	fraction of binding sites [2]	Kd [3] [nM]	Kd [4] [µM]	Kd [5] [nM]	decrease of the signal with unlabelled NadA [6] [%]	Kd [7] [nM]	decrease of the signal with 5 uM unlabelled NadA [7] [%]	CD86 expression on co-stimulation with R-848 (mo-DCs [8]; R-848 1 μM, after IFN-γ priming, NadA 1.5 μM)	CD86 expression (mo-DCs [8]; after IFN-γ priming, CpG up to 10 μg/ml)	CD86 expression (mo-DCs [8]; no IFN-γ priming)	IL-12(p70) secretion (mo-DCs [9])	IL-12 secretion with R-848 co-stimulation (mo-DCs [10])
NadAΔ351-405 (from UniProt P0DV44 24-350)	3 µM and 5 µM	70 to 80	50 to 100	30% and 20%	1000	4	90	-50	3000	-50	–	–	–	–	–
flagellin [reference compound]	–	–	–	–	–	–	–	–	–	–	not further increased	comparable to that induced by NadA 1.5 μM	significant increase	comparable to that induced by both 0.25 μM (9 μg/ml) and 1.5 μM (50 μg/ml) NadA	ineffective
